Laboratory results from patent US20030119733A1, “Compositions and methods for inhibiting hepatocyte invasion by malarial sporozoites” (New York University, priority 1992, published 2003).

B1: CSFZ (Cys): residues 27-123 plus NANP (a single instance) plus residues 300-411 of P. falciparum CS protein (protein)
chain: GSSSNTRVLNELNYDNAGTNLYNELEMNYYGKQENWYSLKKNSRSLGENDDGNNNNGDNGREGKDEDKRDGNNEDNEKLRKPKHKKLKQPGDGNPDPNANPMPNDPNRNVDENANANNAVKNNNNEEPSDKHIEQYLKKIKNSISTEWSPCSVTCGNGIQVRIKPGSANKPKDELDYENDIEKKICKMEKCSSVFNVVNSSIGLIMVLSFLFL

Experiments:
[1] = system: plasma membrane receptors for CS; assay: Enzyme digestion of human liver sections before CS27IVC immunolabeling; assay type: binding; settings: 2 hours 37°; chondroitinase ABC 2 U/ml, heparitinase 20 U/ml
Experimental: Normal rat kidney tissue was fixed with 4% paraformaldehyde and 1% glutaraldehyde in phosphate-buffered saline (PBS) and embedded in LR White; normal human liver was fixed similarly and embedded in Lowicryl K4M (Cerami et al., Cell 70:1021-1033, 1992). Ultrathin sections were sequentially labeled with 10-50 μg/ml CS27IVC, 15 μg/ml mAb 2A10 and a 1:30 dilution of PAG15. Prior to immunolabeling, part of the sections were incubated for 120 min at 37° C. with heparitinase and chondroitinase ABC (both ICN) using concentrations of 20 U/ml and 2 U/ml, respectively. Control specimens were incubated only with the gold markers or with mAb 2A10 and PAG15.
Human liver sections were incubated with heparitinase or chondroitinase ABC for 2 hours at 37° C., prior to immunolabeling with recombinant CS. The sections were then labelled with CS27IVC followed by mAb 2A10 and PAG15. FIGS. 8a and 8b are electron micrographs of Lowicryl K4M-embedded sections. The section of FIG. 8a was treated with 2 U/ml chondroitinase ABC (ICN) for 2 hour at 37° before the immunolabeling. The typical CS label on the space of Disse (D) and on the lateral domain of the hepatocyte plasma membrane (arrows) and on lysosomes (L) was unaltered. The patchy pattern of CS-labeled hepatocyte microvilli within the space of Disse was still present in the chondroitinase-treated sections (FIG. 8a). […]

[2] = system: CS binding to HepG2 cells; assay: Enzyme treatment of HepG2 cells before CS binding; design: species or system human; settings: heparitinase from 5 U/ml, chondroitinase ABC from 1 U/ml; CSFZ(Cys) 5 μg/ml
Experimental: In some experiments the HepG2 cells were treated with either heparitinase (Sigma) or chondroitinase ABC (ICN) before incubation with the CS. Heparitinase treatment was performed in 0.05 M acetate buffer, pH 6.0, containing 1 mg/ml BSA and 1 mM PMSF, 5μg/ml leupeptin and pepstatin. Cells were treated for 3 hours at 37° C. and then were washed 3× with TBS before protein was added. Chondroitinase ABC treatment was performed overnight at 37° C. in 0.1 M Tris/HCl, pH 8.0, 0.03 M sodium acetate and 0.1% BSA, and washed 3× with TBS. Enzyme-treated cells were then incubated with CS as outlined above.
Paraformaldehyde-fixed HepG2 cells were preincubated with varying amounts of enzyme, washed and then incubated with 5 μg/ml of CSFZ(Cys). […] Heparitinase and chondroitinase ABC were used at initial concentrations of 5 U/ml and 1 U/ml, respectively. […] Each point represents the mean of triplicates, and percent inhibition was calculated by comparison to cells that were not treated with enzyme.

HepG2 cells = assay: HepG2 cell binding assay of recombinant CS polypeptides; design: species or system human; settings: indirect immunofluorescence
Experimental: For indirect immunofluorescence, HepG2 cells (ATCC number HB8065, Rockville, Md.; Knowles, B. P., et al., Science 209:497-499, 1980) were grown on slides (Cel-Line Associates, Inc., Newfield, N.J.) overnight in minimum essential medium with 10% fetal calf serum (FCS-MEM; GIBCO, Grand Island, N.Y.), 1 mM L-glutamine (GIBCO), 3 mg/ml glucose (Sigma), 1×nonessential amino acids (GIBCO), 50 μg/ml penicillin, and 100 μg/ml streptomycin (GIBCO). For the enzyme-linked immunosorbent assay, 10^5 HepG2 cells were deposited in 96-well Falcon tissue culture plates (Becton Dickinson, Oxnard, Calif.) and grown for 24 hr. in FCS-MEM. The cells were fixed with 4% paraformaldehyde, washed three times with PBS, and stored at 4° C. in BSA/TPBS until use. Before the experiments, plates were blocked for 2 hr. at 37° C. with 1% gelatin, 0.05% Tween in PBS (pH 7.4) (gelatin/TPBS). […] After 15 min., fluorescence was read in a Fluoroskan II plate reader (Flow Lab Inc., McLean, Va.) with excitation filter 350 nm and emission filter 460 nm. […]
In order to quantify more accurately the effectiveness of various peptides in inhibiting the CS27IVC binding to hepatocytes additional experiments were performed using the human hepatoma cell line HepG2. This cell line is invaded readily by P.berghei sporozoites. […] The results, expressed in fluorescence units v. protein concentration are depicted in FIG. 6. […]

rat liver sections = assay: Staining of frozen tissue sections with recombinant CS polypeptides; assay type: binding; settings: revealed with MAb 2A10, fluorescence; CS27IVC 50-5 μg/ml, Falciparum-2 25 μg/ml, Falciparum-1 up to 250 μg/ml
Experimental: The procedure was carried out essentially as described by Dukor P. et al., Proc. Natl. Acad. Sci. USA 67:991-997, 1970 and Imai Y. et al., J. Cell. Biol. 111:1225-1232, 1990. Rats were euthanized with CO2. Small pieces of the liver, spleen, heart, brain and lung were removed, snap frozen in liquid nitrogen, embedded in Tissue Tek O.C.T. (Miles, Inc., Naperville, Ill.), and cut into 5 μm sections. Sections were dried for 30 min., fixed for 10 min. in 4% paraformaldehyde, rinsed three times with phosphate-buffered saline (PBS), and either used immediately or stored at 4° C. in 1% BSA, 0.5% Tween, PBS (BSA/TPBS). After blocking with 100 mM glycine (pH 7.2) and with BSA/TPBS, the sections were sequentially incubated at 37° C. with recombinant proteins for 1 hr, 10 μg/ml MAb 2A10 for 45 min., and rat anti-mouse immunoglobulin conjugated to fluorescein isothiocyanate (Boehringer Mannheim, Indianapolis, Ind.) for 45 min. The slides were counterstained for 10 min. with 0.3% Evans blue, rinsed extensively in PBS, and finally observed under a fluorescence microscope. For peptide inhibition experiments, the sections were first incubated with the peptide at various concentrations in BSA/TPBS for 1 hour at 37° C., washed six times with BSA/TPBS, and then stained with 2.5 μg/ml CS recombinant protein as described above. In a few experiments, the tissues were fixed for 10 min. with methanol, acetone, or 4% paraformaldehyde containing 0.5% glutaraldehyde.
Frozen sections of various rat organs were incubated with recombinant CS27IVC polypeptide. […] The staining closely followed the sinusoidal spaces of the hepatic lobules, indicating CS binding to the hepatocyte membrane. Other areas of the liver sections and sections of other organs (spleen, lung, heart or brain) were not stained. Control sections (incubated with CS27IVC in the absence of antibody or vice versa) were not stained either.
To define the region of the CS that mediates the perisinusoidal staining various other recombinant constructs were also used in the frozen section assay.

[3] = system: heparan sulfate proteoglycans (HSPG); assay: CS/proteoglycan co-immunoprecipitation; assay type: binding, human
Experimental: All extracts and supernatants were first precleared with normal rabbit serum and Staph A cells. Then 32 μg/ml of CSFZ(Cys) or 64 μg/ml of CS27IVC, Falc-2 or Falc-1 were added for 30 minutes, followed by 10.8 μg/ml mAb 2A10 for 30 minutes, and 1% Staph A cells (final concentrations). The suspensions were shaken for 1 to 5 hours at 4° C. The Staph A cells were washed 3 times with the lysis buffer A, 2 times with lysis buffer B (10 mM Tris-HCl, pH 7.2, containing 100 mM NaCl and 0.5% NP40), 1 time with 50 mM Tris-HCl, ph 7.2, and were processed in this buffer for electrophoresis under reducing and non-reducing conditions.
Extracts of cells metabolically labeled with ^35SO4 were incubated for 30 minutes at 4° C. with 32 μg/ml of recombinant CSFZ(Cys) or 64 μg/ml Falc-1, and were immunoprecipitated with mAb 2A10 and Staph A cells. […] Immunoprecipitation with Falc-1 was negative. The SDS-PAGE patterns of the total lysate of HepG2 cells, and of the molecules co-immunoprecipitated with CSFZ(Cys) resembled the corresponding liver SDS-PAGE patterns. In kidney lysates, CSFZ(Cys) selectively immunoprecipitated a band of slightly lower molecular weight than the total kidney sulfated molecules.
Sub-confluent HepG2 cells were incubated with various concentrations of trypsin for 5 minutes at 4° C. […] Independently of the trypsin concentration, about 80% of the released HSPG was co-immunoprecipitated by 32 μg/ml CSFZ(Cys) and 10.8 μg/ml mAb 2A10. Under the same conditions, Falc-1 was negative.
^35SO4-labeled trypsin-released proteoglycan (total supernatant) was precipitated by CSFZ(Cys) (32 μg/ml), Falc-2 (64 μg/ml), CS27IVC (64 μg/ml) and Falc-1 (64 μg/ml). The labeled molecules were incubated with CSFZ(Cys), CS27IVC, and Falc-2 at equivalent concentrations of Region II+, and co-immunoprecipitated with the mAb 2A10. CSFZ(Cys), lacking most of the repeat region, precipitated up to 86% of the total sulfate-labeled proteoglycans (see FIG. 14), while CS27IVC and Falc-2 precipitated only 18% and 6% of the counts, respectively. Falc-1, which lacks Region II+, was negative.
Subconfluent sulfate-labeled HepG2 cells were incubated with 20 μg/ml trypsin for 5 minutes at 4° C., and the supernatants were loaded onto an anion exchange chromatography Pharmacia mono-Q column. These were eluted with a 0 to 2 M NaCl gradient in the presence of 7 M urea. […] Protein was not detectable in the labeled peaks. One ml fractions were collected and counted.

Row | Molecule | CS27IVC label on human liver sections after enzyme treatment [1] | effect of enzyme treatment of HepG2 cells on CS binding [2] | binding to HepG2 cells (HepG2 cells) | binding (staining) to frozen liver sections (rat liver sections) | co-immunoprecipitation of 35SO4-labeled sulfated molecules ([3]; lysates of rat liver, HepG2 cells, kidney, CSFZ(Cys) 32 μg/ml, others 64 μg/ml) | counts in the mono-Q peak co-immunoprecipitated ([3]; peak at 0.6 to 0.8 M NaCl) | released HSPG co-immunoprecipitated ([3]; trypsin-released from HepG2 cells, CSFZ(Cys) 32 μg/ml, mAb 2A10 10.8 μg/ml) | total sulfate-labeled proteoglycans precipitated ([3]; trypsin-released proteoglycan, equivalent concentrations of Region II+)
1 | chondroitinase ABC | unaltered | no effect |  |  |  |  |  | 
2 | B1 |  |  | bound | bound with the same pattern as CS27IVC | co-immunoprecipitated sulfated molecules | about 80% | about 80% | up to 86%
